Results from patent US20030148956A1 (PROCTER AND GAMBLE, published 2003).
Ends that are not written are not given here.

T1: corticotropin releasing factor 2 receptor
T1 sequence (Q13324 whole entry, species assumed, looked up): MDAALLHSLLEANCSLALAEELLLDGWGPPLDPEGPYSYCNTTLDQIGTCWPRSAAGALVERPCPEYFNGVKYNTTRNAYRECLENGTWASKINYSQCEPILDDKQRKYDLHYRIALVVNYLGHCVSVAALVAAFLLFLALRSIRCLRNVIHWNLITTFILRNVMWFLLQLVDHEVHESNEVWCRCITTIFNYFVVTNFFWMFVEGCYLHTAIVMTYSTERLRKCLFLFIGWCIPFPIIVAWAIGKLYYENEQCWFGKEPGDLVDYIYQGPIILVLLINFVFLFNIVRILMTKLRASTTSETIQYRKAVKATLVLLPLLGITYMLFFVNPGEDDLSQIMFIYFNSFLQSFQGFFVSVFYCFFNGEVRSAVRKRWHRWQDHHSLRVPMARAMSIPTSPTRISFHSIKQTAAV

T2: CRF2R
T2 sequence (Q13324 whole entry, species assumed, looked up): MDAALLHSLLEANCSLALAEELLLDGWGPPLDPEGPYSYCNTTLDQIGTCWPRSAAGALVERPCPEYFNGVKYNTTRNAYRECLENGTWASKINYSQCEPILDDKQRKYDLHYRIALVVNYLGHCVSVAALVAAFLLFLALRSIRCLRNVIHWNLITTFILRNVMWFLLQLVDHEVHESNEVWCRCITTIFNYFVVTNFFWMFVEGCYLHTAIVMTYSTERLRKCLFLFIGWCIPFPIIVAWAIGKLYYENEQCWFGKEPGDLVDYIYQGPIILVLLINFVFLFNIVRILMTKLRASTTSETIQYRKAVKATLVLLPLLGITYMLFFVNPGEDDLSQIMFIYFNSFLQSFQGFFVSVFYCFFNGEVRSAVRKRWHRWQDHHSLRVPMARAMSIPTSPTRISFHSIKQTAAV


Key:
Assay in all cases: cell-based or functional assay
[1] = molecular target: T1, corticotropin releasing factor 2 …
[2] = molecular target: corticotropin releasing factor 1 receptor
[3] = molecular target: CRF1R
[4] = molecular target: T2, CRF2R

| CRF2R EC50 [1] [nM] | CRF2R Emax % [1] [%] | CRF1R EC50 [2] [nM] | CRF1R Emax % [2] [%] | CRF1R EC50 [3] [nM] | CRF1R Emax [3] [%] | CRF2R EC50 [4] [nM] | CRF2R Emax [4] [%] | Binder |
| --- | --- | --- | --- | --- | --- | --- | --- | --- |
| 100 | 23.4 | 1000 | 9.3 | – | – | – | – | NDDPPISIDLPQYLLRNMIEMARIENEREQAGLNAKYLAEV-NH2 [SEQ ID NO 265] |
| 23.3 | 100 | 1000 | 51.1 | – | – | – | – | ZGPPISIDLPFQLLRKVIEIEKQEKEKQQAANNAELLAEI (C-terminal amide) [SEQ ID NO 272] |
| 13.8 | 100 | 508 | 80.9 | – | – | – | – | ZGPPISIDLPFQLLRKVIEIEKQEKEKQQAANNAKLLAKI (C-terminal amide) [SEQ ID NO 274] |
| 31.3 | 100 | 1000 | 59.3 | – | – | – | – | ZGPPISIDLPFQLLRKVIEIEKQEKEKQQAANNAQLLAHI (C-terminal amide) [SEQ ID NO 273] |
| 100 | 44.2 | 1000 | 22.8 | – | – | – | – | NDDPPISIDLPYYLLRNMIEMARIENEREQAGLNAKYLAEV-NH2 [SEQ ID NO 267] |
| 48.1 | 69 | 815 | 80.7 | – | – | – | – | NDDPPISIDLPLYLLRNMIEMARIENEREQAGLNAKYLAEV-NH2 [SEQ ID NO 271] |
| 100 | 19.4 | 1000 | 4.45 | – | – | – | – | NDDPPISIDLPTYLLRNMIEMARIENEREQAGLNAKYLAEV-NH2 [SEQ ID NO 266] |
| 100 | 95.3 | 274 | 100 | – | – | – | – | NDDPPISIDLPFYLLRNMIEMARIENEREQAGLNAKYLAEV-NH2 [SEQ ID NO 261] |
| 36.2 | 93 | 802 | 72 | – | – | – | – | DNPSLSIDLPYYLLRTLLELARTQSQRERAEQNAIIFASV-NH2 [SEQ ID NO 263] |
| 100 | 19.3 | 1000 | 7.85 | – | – | – | – | NDDPPISIDLPLQLLRNMIEMARIENEREQAGLNAKYLAEV-NH2 [SEQ ID NO 270] |
| 100 | 89.3 | 834 | 89.7 | – | – | – | – | NDDPPISIDLPFLLLRNMIEMARIENEREQAGLNAKYLAEV-NH2 [SEQ ID NO 260] |
| 100 | 59 | 1000 | 14.2 | – | – | – | – | NDDPPISIDLPLLLLRNMIEMARIENEREQAGLNAKYLAEV-NH2 [SEQ ID NO 268] |
| 100 | 77.3 | 1000 | 44.3 | – | – | – | – | NDDPPISIDLPLILLRNMIEMARIENEREQAGLNAKYLAEV-NH2 [SEQ ID NO 269] |
| 100 | 92.2 | 408 | 100 | – | – | – | – | NDDPPISIDLPFHLLRNMIEMARIENEREQAGLNAKYLAEV-NH2 [SEQ ID NO 262] |
| 100 | 66.3 | 704 | 100 | – | – | – | – | NDDPPISIDLPFFLLRNMIEMARIENEREQAGLNAKYLAEV-NH2 [SEQ ID NO 264] |

More lines, now with the values behind:

| Binder | CRF2R EC50 [1] [nM] | CRF2R Emax % [1] [%] | CRF1R EC50 [2] [nM] | CRF1R Emax % [2] [%] | CRF1R EC50 [3] [nM] | CRF1R Emax [3] [%] | CRF2R EC50 [4] [nM] | CRF2R Emax [4] [%] |
| --- | --- | --- | --- | --- | --- | --- | --- | --- |
| NDDPPISIDLPLFLLRNMIEMARIENEREQAGLNAKYLAEV-NH2 [SEQ ID NO 257] | 100 | 72.6 | 744 | 83.5 | – | – | – | – |
| NDDPPISIDLPLHLLRNMIEMARIENEREQAGLNAKYLAEV-NH2 [SEQ ID NO 259] | 100 | 65 | 820 | 83.6 | – | – | – | – |
| ZGPPISIDVPFQLLRKMIEIEKQEKEKQQAANNRLLLDTI (C-terminal amide) [SEQ ID NO 256] | 12.6 | 100 | 254 | 100 | – | – | – | – |
| ZGPPISIDLPYHLLRKMIEIEKQEKEKQQAANNRLLLDTI (C-terminal amide) [SEQ ID NO 208] | – | – | – | – | 64.9 | 81 | 5.6 | 88 |
| ZGPPISIDLPITLLRKMIEIEKQEKEKQQAANNRLLLDTI (C-terminal amide) [SEQ ID NO 24] | – | – | – | – | > 1000 | 18 | 43.1 | 100 |
| ZGPPISIDLPYILLRKMIEIEKQEKEKQQAANNRLLLDTI (C-terminal amide) [SEQ ID NO 204] | – | – | – | – | 32.1 | 74 | 3.6 | 93 |
| ZGPPISIDLPWHLLRKMIEIEKQEKEKQQAANNRLLLDTI (C-terminal amide) [SEQ ID NO 209] | – | – | – | – | 26.4 | 80 | 7.4 | 93 |
| ZGPPISIDLPQHLLRKMIEIEKQEKEKQQAANNRLLLDTI (C-terminal amide) [SEQ ID NO 207] | – | – | – | – | 466 | 88 | 61.4 | 96 |
| ZGPPISIDLPYTLLRKMIEIEKQEKEKQQAANNRLLLDTI (C-terminal amide) [SEQ ID NO 200] | – | – | – | – | 188 | 99 | 8.8 | 100 |
| ZGPPISIDLPAHLLRKMIEIEKQEKEKQQAANNRLLLDTI (C-terminal amide) [SEQ ID NO 206] | – | – | – | – | 696 | 97 | 30.5 | 97 |
| ZGPPISIDLPHHLLRKMIEIEKQEKEKQQAANNRLLLDTI (C-terminal amide) [SEQ ID NO 205] | – | – | – | – | 126 | 88 | 25 | 93 |
| ZGPPISIDLPYLLLRKMIEIEKQEKEKQQAANNRLLLDTI (C-terminal amide) [SEQ ID NO 203] | – | – | – | – | 76.2 | 86 | 5.2 | 94 |
| ZGPPISIDLPQILLRKMIEIEKQEKEKQQAANNRLLLDTI (C-terminal amide) [SEQ ID NO 199] | – | – | – | – | 706 | 93 | 8.5 | 92 |
| ZGPPISIDLPYQLLRKMIEIEKQEKEKQQAANNRLLLDTI (C-terminal amide) [SEQ ID NO 202] | – | – | – | – | 404 | 100 | 8.7 | 99 |
| ZGPPISIDLPWQLLRKMIEIEKQEKEKQQAANNRLLLDTI (C-terminal amide) [SEQ ID NO 210] | – | – | – | – | 43.5 | 90 | 10.2 | 97 |
| ZGPPISIDLPYVLLRKMIEIEKQEKEKQQAANNRLLLDTI (C-terminal amide) [SEQ ID NO 201] | – | – | – | – | 99.6 | 80 | 5 | 100 |
| ZGPPISIDLPAQLLRKMIEIEKQEKEKQQAANNRLLLDTI (C-terminal amide) [SEQ ID NO 211] | – | – | – | – | 826 | 37 | 59.5 | 100 |
| NDDPPISIDLPFQLLRNMIEMARIENEREQAGLNAKYLAEV-NH2 [SEQ ID NO 258] | 100 | 49.3 | 1000 | 23.6 | – | – | – | – |
| ZGPPISIDLPFQLLRKMIEIEKQEKEKQQATTNARLLATV (C-terminal amide) [SEQ ID NO 21] | – | – | – | – | 908 | 88 | 8.46 | 96 |
| ZGPPISIDLPFQLLRKMIEIEKQEKEKQQATTNARLLDRV (C-terminal amide) [SEQ ID NO 22] | – | – | – | – | 1000 | 64 | 8.33 | 100 |
| ZGPPISIDLPFQLLRKMIEIEKQEKEKQQATTNARLLARV (C-terminal amide) [SEQ ID NO 23] | – | – | – | – | 1000 | 82 | 10.2 | 100 |
